Measured values taken from PMC7539009, “Mechanism and evolution of the Zn-fingernail required for interaction of VARP with VPS29” (Nature Communications, 2020).
Each block holds one binder with its values, some of them ahead of it.

Key:
[1] = target: VPS29 (short isoform, N-terminal sequence MLVL), untagged (UniProt Q9UBQ0-1 1-182); assay: SPR; Biacore T200; GST fusion captured on goat anti-GST antibody coupled to a CM5 chip, GST-CLA on the blank flow cell; VPS29 as analyte, typically 40 to 0.3 μM; 20 mM Tris, 200 mM NaCl, 0.1 mM TCEP, 0.5 μM ZnCl2, pH 7.4; 12 °C for the KD of 2–3 µM; equilibrium and kinetic analysis, single site; details: both partners purified
[2] = target: long VPS29 (isoform with the N-terminal sequence …) (UniProt Q9UBQ0-2 1-186); assay: as above; details: both partners purified

Kd [1]: > 300 µM
Kd [2]: ~67 µM
B1: GST-TBC1D5 (residues 132–156) (domain or fragment)
chain: GQQDLMINNPLSQDEGSLWNKFFQD
notes: TBC1D5 residues 132-156, holds the Asn Pro Leu motif and the short helix upstream of it; also called TBC1D5 (132–156); not shown: GST, N-terminal, kept

Kd [1]: 55 µM
B2: GST-VARP residues 692-746, 4C mutant (all four Cys to Ser) (domain or fragment)
chain: TEEDLEDAEDTVSAADPEFSHPLSQSPKSAPAQKRLAKVPASGLGVNVTSQDGSSW
notes: non-native Trp residue numbered 747; source: E. coli BL21 (DE3) pLysS, pGEX6P1, purified (GST-Sepharose, S75 Superdex gel filtration); not shown: GST, N-terminal, kept
